Positions count from the first letter of the chain named. Names and notes keep the numbering of the source.
T1: PUF4 RNA-binding domain (Saccharomyces cerevisiae, UniProt P25339 537-888)
T1 sequence: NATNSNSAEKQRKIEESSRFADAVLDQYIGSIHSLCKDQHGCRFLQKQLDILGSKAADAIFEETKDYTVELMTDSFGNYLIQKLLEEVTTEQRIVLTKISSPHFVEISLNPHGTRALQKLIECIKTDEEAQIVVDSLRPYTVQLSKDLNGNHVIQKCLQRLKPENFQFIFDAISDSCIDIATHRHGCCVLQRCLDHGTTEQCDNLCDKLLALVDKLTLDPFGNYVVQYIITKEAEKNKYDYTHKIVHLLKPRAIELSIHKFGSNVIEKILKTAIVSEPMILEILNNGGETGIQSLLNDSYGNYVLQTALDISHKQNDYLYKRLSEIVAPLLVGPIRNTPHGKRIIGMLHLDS

B1: Id_ii_S2_P4E.3_K4.2_C4.2_[T-1A]_H4.2_A4.1_F4.1_T4.2_[G10A] (ssRNA)
RNA: UUUGAUUAAUAUGAUAUCGUUCUUUCUCAUAUAUAUUAAUUUCUUUCUCGAUAUCAUAUUAAUCUUU
B2: Id_ii_S2_P4E.4_K4.3_C4.2_[C-2T]_[T-1C]_H4.3_A4.1_F4.1_T4.2_[G10C] (ssRNA)
RNA: B1 RNA with C28U, A29C, U30A, A31C, U32A, A33C, A39C
B3: Id_ii_S2_P4E.4_K4.3_C4.2_[C-2G]_H4.3_A4.1_F4.1_T4.2_[G10A]_[T11C] (ssRNA)
RNA: B1 RNA with C28G, A29U, U30A, A31C, U32A, A33C, U40C
B4: If_S2_P4E.3_K4.2_C4.2_H4.2_A4.1_F4.1_T4.2 (ssRNA)
RNA: B1 RNA with A29U, A39G
B5: Id_ii_S2_P4E.4_K4.3_C4.2_[C-2T]_H4.3_A4.1_F4.1_T4.2_[G10A]_[T11A] (ssRNA)
RNA: B1 RNA with C28U, A29U, U30A, A31C, U32A, A33C, U40A
B6: Id_ii_S2_P4E.3_K4.2_C4.2_H4.2_A4.1_F4.1_T4.2_[G10C]_[T11G] (ssRNA)
RNA: B1 RNA with A29U, A39C, U40G
B7: Id_ii_S2_P4E.4_K4.3_C4.2_[C-2A]_[T-1C]_H4.3_A4.1_F4.1_T4.2_[G10C] (ssRNA)
RNA: B1 RNA with C28A, A29C, U30A, A31C, U32A, A33C, A39C
B8: Id_ii_S2_P4E.4_K4.3_C4.2_[C-2A]_[T-1C]_H4.3_A4.1_F4.1_T4.2_[G10A]_[T11A] (ssRNA)
RNA: B1 RNA with C28A, A29C, U30A, A31C, U32A, A33C, U40A
B9: Id_ii_S2_P4E.3_K4.2_C4.2_[T-1A]_H4.2_A4.1_F4.1_T4.2 (ssRNA)
RNA: B1 RNA with A39G
B10: Id_ii_S2_P4E.4_K4.3_C4.2_[C-2T]_[T-1A]_H4.3_A4.1_F4.1_T4.2_[G10C]_[T11A] (ssRNA)
RNA: B1 RNA with C28U, U30A, A31C, U32A, A33C, A39C, U40A
B11: Id_ii_S2_P4E.4_K4.3_C4.2_[C-2G]_H4.3_A4.1_F4.1_T4.2_[G10T]_[T11A] (ssRNA)
RNA: B1 RNA with C28G, A29U, U30A, A31C, U32A, A33C, A39U, U40A
B12: Id_ii_S2_P4E.3_K4.2_C4.2_H4.2_A4.1_F4.1_T4.2_[G10A] (ssRNA)
RNA: B1 RNA with A29U
B13: Id_ii_S2_P4E.4_K4.3_C4.2_[C-2A]_[T-1C]_H4.3_A4.1_F4.1_T4.2_[G10T]_[T11C] (ssRNA)
RNA: B1 RNA with C28A, A29C, U30A, A31C, U32A, A33C, A39U, U40C
B14: Id_ii_S2_P4E.4_K4.3_C4.2_[C-2T]_[T-1C]_H4.3_A4.1_F4.1_T4.2_[G10C]_[T11C] (ssRNA)
RNA: B1 RNA with C28U, A29C, U30A, A31C, U32A, A33C, A39C, U40C
B15: Id_ii_S2_P4E.4_K4.3_C4.2_[C-2G]_H4.3_A4.1_F4.1_T4.2_[G10A] (ssRNA)
RNA: B1 RNA with C28G, A29U, U30A, A31C, U32A, A33C
B16: Id_ii_S2_P4E.4_K4.3_C4.2_[C-2A]_[T-1A]_H4.3_A4.1_F4.1_T4.2_[G10C]_[T11C] (ssRNA)
RNA: B1 RNA with C28A, U30A, A31C, U32A, A33C, A39C, U40C
B17: Id_ii_S2_P4E.4_K4.3_C4.2_[C-2T]_[T-1A]_H4.3_A4.1_F4.1_T4.2_[G10A]_[T11A] (ssRNA)
RNA: B1 RNA with C28U, U30A, A31C, U32A, A33C, U40A
B18: Id_ii_S2_P4E.4_K4.3_C4.2_[C-2A]_[T-1A]_H4.3_A4.1_F4.1_T4.2_[G10C] (ssRNA)
RNA: B1 RNA with C28A, U30A, A31C, U32A, A33C, A39C
B19: Id_ii_S2_P4E.4_K4.3_C4.2_[C-2G]_[T-1C]_H4.3_A4.1_F4.1_T4.2 (ssRNA)
RNA: B1 RNA with C28G, A29C, U30A, A31C, U32A, A33C, A39G
B20: Id_ii_S2_P4E.4_K4.3_C4.2_[C-2T]_[T-1C]_H4.3_A4.1_F4.1_T4.2_[G10T]_[T11A] (ssRNA)
RNA: B1 RNA with C28U, A29C, U30A, A31C, U32A, A33C, A39U, U40A
B21: Id_ii_S2_P4E.3_K4.2_C4.2_H4.2_A4.1_F4.1_T4.2_[G10T]_[T11C] (ssRNA)
RNA: B1 RNA with A29U, A39U, U40C
B22: Id_ii_S2_P4E.4_K4.3_C4.2_[C-2G]_[T-1C]_H4.3_A4.1_F4.1_T4.2_[G10A]_[T11A] (ssRNA)
RNA: B1 RNA with C28G, A29C, U30A, A31C, U32A, A33C, U40A
B23: Id_ii_S2_P4E.3_K4.2_C4.2_H4.2_A4.1_F4.1_T4.2_[G10T] (ssRNA)
RNA: B1 RNA with A29U, A39U
B24: Id_ii_S2_P4E.4_K4.3_C4.2_[C-2T]_[T-1A]_H4.3_A4.1_F4.1_T4.2_[G10T]_[T11A] (ssRNA)
RNA: B1 RNA with C28U, U30A, A31C, U32A, A33C, A39U, U40A
B25: Id_ii_S2_P4E.3_K4.2_C4.2_[T-1A]_H4.2_A4.1_F4.1_T4.2_[T11G] (ssRNA)
RNA: B1 RNA with A39G, U40G
B26: Id_ii_S2_P4E.3_K4.2_C4.2_H4.2_A4.1_F4.1_T4.2_[G10A]_[T11C] (ssRNA)
RNA: B1 RNA with A29U, U40C
B27: Id_ii_S2_P4E.4_K4.3_C4.2_[C-2T]_H4.3_A4.1_F4.1_T4.2_[G10A]_[T11C] (ssRNA)
RNA: B1 RNA with C28U, A29U, U30A, A31C, U32A, A33C, U40C
B28: Id_ii_S2_P4E.4_K4.3_C4.2_[C-2T]_H4.3_A4.1_F4.1_T4.2_[G10C]_[T11A] (ssRNA)
RNA: B1 RNA with C28U, A29U, U30A, A31C, U32A, A33C, A39C, U40A
B29: Id_ii_S2_P4E.4_K4.3_C4.2_[C-2G]_H4.3_A4.1_F4.1_T4.2_[G10A]_[T11A] (ssRNA)
RNA: B1 RNA with C28G, A29U, U30A, A31C, U32A, A33C, U40A
B30: Id_ii_S2_P4E.3_K4.2_C4.2_H4.2_A4.1_F4.1_T4.2_[T11C] (ssRNA)
RNA: B1 RNA with A29U, A39G, U40C
B31: Id_ii_S2_P4E.4_K4.3_C4.2_[C-2T]_[T-1C]_H4.3_A4.1_F4.1_T4.2_[G10A]_[T11A] (ssRNA)
RNA: B1 RNA with C28U, A29C, U30A, A31C, U32A, A33C, U40A
B32: Id_ii_S2_P4E.4_K4.3_C4.2_[C-2T]_H4.3_A4.1_F4.1_T4.2 (ssRNA)
RNA: B1 RNA with C28U, A29U, U30A, A31C, U32A, A33C, A39G
B33: Id_ii_S2_P4E.3_K4.2_C4.2_H4.2_A4.1_F4.1_T4.2_[G10C]_[T11A] (ssRNA)
RNA: B1 RNA with A29U, A39C, U40A
B34: Id_ii_S2_P4E.4_K4.3_C4.2_[C-2T]_[T-1C]_H4.3_A4.1_F4.1_T4.2_[G10T] (ssRNA)
RNA: B1 RNA with C28U, A29C, U30A, A31C, U32A, A33C, A39U
B35: Id_ii_S2_P4E.4_K4.3_C4.2_[C-2T]_[T-1A]_H4.3_A4.1_F4.1_T4.2_[G10T] (ssRNA)
RNA: B1 RNA with C28U, U30A, A31C, U32A, A33C, A39U
B36: Id_ii_S2_P4E.4_K4.3_C4.2_[C-2A]_[T-1C]_H4.3_A4.1_F4.1_T4.2_[G10T]_[T11A] (ssRNA)
RNA: B1 RNA with C28A, A29C, U30A, A31C, U32A, A33C, A39U, U40A
B37: Id_ii_S2_P4E.4_K4.3_C4.2_[C-2G]_H4.3_A4.1_F4.1_T4.2_[G10C]_[T11C] (ssRNA)
RNA: B1 RNA with C28G, A29U, U30A, A31C, U32A, A33C, A39C, U40C
B38: Id_ii_S2_P4E.4_K4.3_C4.2_[C-2T]_H4.3_A4.1_F4.1_T4.2_[G10C]_[T11C] (ssRNA)
RNA: B1 RNA with C28U, A29U, U30A, A31C, U32A, A33C, A39C, U40C
B39: Id_ii_S2_P4E.4_K4.3_C4.2_[C-2T]_[T-1A]_H4.3_A4.1_F4.1_T4.2 (ssRNA)
RNA: B1 RNA with C28U, U30A, A31C, U32A, A33C, A39G
B40: Id_ii_S2_P4E.4_K4.3_C4.2_[C-2T]_H4.3_A4.1_F4.1_T4.2_[G10A] (ssRNA)
RNA: B1 RNA with C28U, A29U, U30A, A31C, U32A, A33C

Each binder was assayed against T1, PUF4 RNA-binding domain (assay: Mg; RNA-MaP; 20 mM Na-HEPES pH 7.4, 30 mM KOAc, 0.75 mM MgCl2, 0.1% Tween-20, 5% glycerol, 0.1 mg/mL BSA, 2 mM DTT; 25 C; 0.0125-409.6 nM protein). Settings: tags: N-His6-TEV cleaved; C-SNAP kept, Cy3B-labelled; label: tethered on chip by stalled RNA polymerase.
UCUCUUUGUACUAGUAUCUCUU (ssRNA) [Ib_S1_P5E.1_K5.1_C5.1_H5.1_A5.1_[T5C]_F5.1_[T8G]_T5.1] gave a Kd of 23.5 nM.
With UCUCUUUGCAUUAUUAUCUCUU (ssRNA) [Ia_S1_P5E.1_K5.1_C5.1_H5.1_[T3C]_A5.1_F5.1_T5.1] the Kd was 1250 nM.
Binder UCUCUUUGUCUUAUUUUCUCUU (ssRNA) [Ib_S1_P5E.1_K5.1_C5.1_H5.1_[A4C]_A5.1_F5.1_[A10T]_T5.1] has a Kd of 775 nM.
In the case of UCUCUUUGUAAUAGUAUCUCUU (ssRNA) [Ib_S1_P5E.1_K5.1_C5.1_H5.1_A5.1_[T5A]_F5.1_[T8G]_T5.1], the Kd is reported as 21.4 nM.
UCUCUUUGUUUUAUUUUCUCUU (ssRNA) [Ib_S1_P5E.1_K5.1_C5.1_H5.1_[A4T]_A5.1_F5.1_[A10T]_T5.1] gave a Kd of 864 nM.
B1 was tested, and the Kd was 10.1 nM.
In the case of B2, the Kd is reported as > 2300 nM.
With B3 the Kd was 0.5 nM.
B4 gave a Kd of 10.4 nM.
With B5 the Kd was 806 nM.
In the case of B6, the Kd is reported as 18.8 nM.
B7 was tested, and the Kd was > 2300 nM.
With B8 the Kd was > 2300 nM.
Binder B9 has a Kd of 8.89 nM.
B10 showed a Kd of 2190 nM.
B11 showed a Kd of 0.496 nM.
B12 showed a Kd of 9.82 nM.
B13 was tested, and the Kd was > 2300 nM.
B14 was tested, and the Kd was > 2300 nM.
Work on B15 yielded a Kd of 0.412 nM.
For B16, the Kd was > 2300 nM.
B17 was tested, and the Kd was > 2300 nM.
B18 was tested, and the Kd was > 2300 nM.
B19 was tested, and the Kd was 448 nM.
B20 was tested, and the Kd was 479 nM.
Binder B21 has a Kd of 4.61 nM.
In the case of B22, the Kd is reported as 23.6 nM.
In the case of B23, the Kd is reported as 3.81 nM.
Work on B24 yielded a Kd of 882 nM.
B25 gave a Kd of 46.4 nM.
B26 was tested, and the Kd was 14 nM.
Work on B27 yielded a Kd of 305 nM.
Work on B28 yielded a Kd of 198 nM.
Work on B29 yielded a Kd of 0.354 nM.
B30 gave a Kd of 7.25 nM.
For B31, the Kd was > 2300 nM.
For B32, the Kd was 2020 nM.
In the case of B33, the Kd is reported as 8.35 nM.
In the case of B34, the Kd is reported as 1530 nM.
B35 was tested, and the Kd was 2160 nM.
Work on B36 yielded a Kd of 592 nM.
Binder B37 has a Kd of 0.865 nM.
In the case of B38, the Kd is reported as 306 nM.
In the case of B39, the Kd is reported as > 2300 nM.
B40 showed a Kd of 445 nM.

Source: paper PMC9352680, “A comprehensive thermodynamic model for RNA binding by the Saccharomyces cerevisiae Pumilio protein PUF4”
